Blank lines part the entries; values can stand above or below the binder they belong to.
Assays:
4H797-AA = target: T1, 4H797-AA; experiment: two-hybrid library CCmax;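 further: natural log of median RNA to DNA barcode read ratio; higher means stronger binding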
T1 chain: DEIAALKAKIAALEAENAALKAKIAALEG

4H953-AA = target: T2, 4H953-AA; experiment: two-hybrid library CCmax; settings: mean of both orientations;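 further: natural log of median RNA to DNA barcode read ratio; higher means stronger binding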
T2 chain: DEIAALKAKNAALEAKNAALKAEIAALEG

4H850-AA = target: T3, 4H850-AA; experiment: two-hybrid library CCmax; settings: mean of both orientations;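 further: natural log of median RNA to DNA barcode read ratio; higher means stronger binding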
T3 chain: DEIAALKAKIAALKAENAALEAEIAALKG

4H909-AA = target: T4, 4H909-AA; experiment: two-hybrid library CCmax; settings: mean of both orientations;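 further: natural log of median RNA to DNA barcode read ratio; higher means stronger binding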
T4 chain: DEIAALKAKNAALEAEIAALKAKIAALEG

4H891-AA = target: T5, 4H891-AA; experiment: two-hybrid library CCmax; settings: mean of both orientations
T5 chain: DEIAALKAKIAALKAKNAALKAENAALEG

4H918-AA = target: T6, 4H918-AA; experiment: two-hybrid library CCmax; settings: mean of both orientations
T6 chain: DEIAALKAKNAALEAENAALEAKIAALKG

4H94-AA = target: T7, 4H94-AA; experiment: two-hybrid library CCmax; settings: mean of both orientations
T7 chain: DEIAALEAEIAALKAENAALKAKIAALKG

4H883-AA = target: T8, 4H883-AA; experiment: two-hybrid library CCmax; settings: mean of both orientations
T8 chain: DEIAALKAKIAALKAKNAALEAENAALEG

4H930-AA = target: T9, 4H930-AA; experiment: two-hybrid library CCmax; settings: mean of both orientations
T9 chain: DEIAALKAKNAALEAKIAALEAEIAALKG

4H967-AA = target: T10, 4H967-AA; experiment: two-hybrid library CCmax; settings: mean of both orientations
T10 chain: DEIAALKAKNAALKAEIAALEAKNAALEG

O7-bA = target: T11, O7-bA; experiment: two-hybrid library CCNG1
T11 chain: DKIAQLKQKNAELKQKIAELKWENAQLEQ

O8-bA = target: T12, O8-bA; experiment: two-hybrid library CCNG1
T12 chain: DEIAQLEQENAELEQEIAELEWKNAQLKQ

O9-bA = target: T13, O9-bA; experiment: two-hybrid library CCNG1
T13 chain: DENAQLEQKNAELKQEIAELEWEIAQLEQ

4H717-AA = target: T14, 4H717-AA; experiment: two-hybrid library CCmax
T14 chain: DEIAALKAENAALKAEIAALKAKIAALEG

4H993-AA = target: T15, 4H993-AA; experiment: two-hybrid library CCmax; settings: mean of both orientations
T15 chain: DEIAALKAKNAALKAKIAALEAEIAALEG

4H906-AA = target: T16, 4H906-AA; experiment: two-hybrid library CCmax; settings: mean of both orientations
T16 chain: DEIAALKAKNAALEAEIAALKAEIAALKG

4H794-AA = target: T17, 4H794-AA; experiment: two-hybrid library CCmax; settings: mean of both orientations
T17 chain: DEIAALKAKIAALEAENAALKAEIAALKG

4H881-AA = target: T18, 4H881-AA; experiment: two-hybrid library CCmax; settings: mean of both orientations
T18 chain: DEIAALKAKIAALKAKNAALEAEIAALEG

4H780-AA = target: T19, 4H780-AA; experiment: two-hybrid library CCmax; settings: mean of both orientations
T19 chain: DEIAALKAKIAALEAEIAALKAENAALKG

4H376-AA = target: T20, 4H376-AA; experiment: two-hybrid library CCmax
T20 chain: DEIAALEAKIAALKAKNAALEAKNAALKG

4H963-AA = target: T21, 4H963-AA; experiment: two-hybrid library CCmax; settings: mean of both orientations
T21 chain: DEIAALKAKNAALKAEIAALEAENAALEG

4H406-AA = target: T22, 4H406-AA; experiment: two-hybrid library CCmax; settings: mean of both orientations
T22 chain: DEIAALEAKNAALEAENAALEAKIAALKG

4H688-AA = target: T23, 4H688-AA; experiment: two-hybrid library CCmax; settings: mean of both orientations
T23 chain: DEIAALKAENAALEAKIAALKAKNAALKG

4H390-AA = target: T24, 4H390-AA; experiment: two-hybrid library CCmax; settings: mean of both orientations
T24 chain: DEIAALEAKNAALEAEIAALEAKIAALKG

4H2985-AA = target: T25, 4H2985-AA; experiment: two-hybrid library CCmax
T25 chain: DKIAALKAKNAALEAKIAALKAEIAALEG

4H87-AA = target: T26, 4H87-AA; experiment: two-hybrid library CCmax; settings: mean of both orientations
T26 chain: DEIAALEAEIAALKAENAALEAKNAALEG

4H510-AA = target: T27, 4H510-AA; experiment: two-hybrid library CCmax; settings: mean of both orientations
T27 chain: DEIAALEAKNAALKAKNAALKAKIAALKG

4H816-AA = target: T28, 4H816-AA; experiment: two-hybrid library CCmax; settings: mean of both orientations
T28 chain: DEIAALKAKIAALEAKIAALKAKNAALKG

4H3625-AA = target: T29, 4H3625-AA; experiment: two-hybrid library CCmax; settings: mean of both orientations
T29 chain: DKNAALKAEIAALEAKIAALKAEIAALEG

4H3409-AA = target: T30, 4H3409-AA; experiment: two-hybrid library CCmax; settings: mean of both orientations
T30 chain: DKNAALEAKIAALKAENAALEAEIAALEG

4H3940-AA = target: T31, 4H3940-AA; experiment: two-hybrid library CCmax; settings: mean of both orientations
T31 chain: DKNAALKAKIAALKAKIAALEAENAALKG

4H3134-AA = target: T32, 4H3134-AA; experiment: two-hybrid library CCmax; settings: mean of both orientations
T32 chain: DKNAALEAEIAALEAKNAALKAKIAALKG

4H775-AA = target: T33, 4H775-AA; experiment: two-hybrid library CCmax; settings: mean of both orientations
T33 chain: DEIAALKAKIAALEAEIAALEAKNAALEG

4H967-bA = target: T34, 4H967-bA; experiment: two-hybrid library CCNG1
T34 chain: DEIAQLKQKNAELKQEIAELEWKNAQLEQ

4H953-bA = target: T35, 4H953-bA; experiment: two-hybrid library CCNG1
T35 chain: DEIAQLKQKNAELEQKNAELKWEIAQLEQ

4H968-bA = target: T36, 4H968-bA; experiment: two-hybrid library CCNG1
T36 chain: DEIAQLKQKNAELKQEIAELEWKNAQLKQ

Binder: DEIAALKAKIAALEAENAALKAKIAALEG [4H797-AA]
interaction score (4H797-AA): 1.76 | interaction score (4H953-AA): -0.955 | interaction score (4H850-AA): 1.16 | interaction score (4H909-AA): -0.899 | interaction score (4H891-AA): -1.35 | interaction score (4H918-AA): -0.389 | interaction score (4H94-AA): 0.948 | interaction score (4H883-AA): -1.4 | interaction score (4H930-AA): -1.72 | interaction score (4H967-AA): -1.81

Binder: DEIAALKAENAALKAEIAALKAKIAALEG [4H717-AA]
interaction score (4H797-AA): -1.4 | interaction score (4H953-AA): -1.87 | interaction score (4H717-AA): 1.89 | interaction score (4H993-AA): 0.0522 | interaction score (4H918-AA): -1.34 | interaction score (4H883-AA): -1.82 | interaction score (4H906-AA): -1.19 | interaction score (4H967-AA): -0.559 | interaction score (4H794-AA): -1.37 | interaction score (4H881-AA): -1.15 | interaction score (4H780-AA): -1.38

Binder: DEIAALEAKIAALKAKNAALEAKNAALKG [4H376-AA]
interaction score (4H376-AA): -1.28 | interaction score (4H963-AA): -1.33 | interaction score (4H406-AA): -0.774 | interaction score (4H688-AA): -1.96

The next lines start with the values.

interaction score (O7-bA): 0.795 | interaction score (O8-bA): 1.39 | interaction score (O9-bA): 0.339
Binder: DKNAQLKQKIAELKQENAELEWKIAQLKQ [O6-bA]

interaction score (4H390-AA): 1.71 | interaction score (4H2985-AA): 0.681 | interaction score (4H87-AA): -1.48 | interaction score (4H510-AA): -0.541 | interaction score (4H816-AA): -0.519 | interaction score (4H3625-AA): 0.889 | interaction score (4H3409-AA): -0.847 | interaction score (4H3940-AA): -0.918 | interaction score (4H3134-AA): -0.682 | interaction score (4H775-AA): -0.922
Binder: DKIAALKAKNAALEAKIAALKAEIAALEG [4H2985-AA]

interaction score (O7-bA): -0.716 | interaction score (4H967-bA): -1.11 | interaction score (4H953-bA): -0.648 | interaction score (4H968-bA): -1.33
Binder: DEIAQLKQKNAELEQKNAELKWEIAQLEQ [4H953-bA]
